Source: US20250235501A1, “Methods and Compositions for Treating or Preventing Neurological Injury or Neurological Disorders” (University of Connecticut, priority 2024, published 2025)

Target: T1, NMDARs (Rattus norvegicus, UniProt Q00959+Q00960)
T1 construct: TRPM2 plasmid a gift 17928; 17924; 17925; host or cells: HEK293T
Assay: NMDAR currents in HEK-293T cells transfected with NMDARs and TRPM2 (whole cell recording)
Assay type: cell-based, human
Settings: 10 μM peptide overnight; 10 μM NMDA, -80 mV
Protocol: FIGS. 5G and 5H show the effects of TAT-EE3 on NMDAR currents in HEK-293T cells transfected with NMDARs and TRPM2. Transfected cells were treated with 10 μM TAT-EE3 or TAT-SC for overnight. FIG. 5G is representative NMDAR currents elicited at −80 mV by exposing to 10 μM NMDA for about 2 to 4 s.
were ordered from GenScript Biotech, and dissolved in PBS to make a stock concentration at 10 mM. HEK-293T cells or isolated neurons were treated with TAT-SC or TAT-EE3 at a concentration of 10 μM for at least 8 h prior to use. Mice were injected with TAT-SC or TAT-EE3 intraperitoneally (ip) at a dose of 100 nmol/kg.
Whole cell currents were recorded using an Axopatch 200B amplifier. Data were digitized at 10 or 20 kHz and digitally filtered offline at 1 kHz. Patch electrodes were pulled from borosilicate glass and fire-polished to a resistance of ˜3 MΩ when filled with internal solutions. Series resistance (Rs) was compensated up to 90% to reduce series resistance errors to <5 mV. Cells in which Rs was >10 MΩ were discarded (Du, J., Xie, J., and Yue, L. (2009). Modulation of TRPM2 by acidic pH and the underlying mechanisms for pH sensitivity. J Gen Physiol 134, 471-88).
For heterologous expression, transfected HEK-293 cells were identified by GFP fluorescence. […]

T1 sequence (Q00959 23-1464, other chains not shown): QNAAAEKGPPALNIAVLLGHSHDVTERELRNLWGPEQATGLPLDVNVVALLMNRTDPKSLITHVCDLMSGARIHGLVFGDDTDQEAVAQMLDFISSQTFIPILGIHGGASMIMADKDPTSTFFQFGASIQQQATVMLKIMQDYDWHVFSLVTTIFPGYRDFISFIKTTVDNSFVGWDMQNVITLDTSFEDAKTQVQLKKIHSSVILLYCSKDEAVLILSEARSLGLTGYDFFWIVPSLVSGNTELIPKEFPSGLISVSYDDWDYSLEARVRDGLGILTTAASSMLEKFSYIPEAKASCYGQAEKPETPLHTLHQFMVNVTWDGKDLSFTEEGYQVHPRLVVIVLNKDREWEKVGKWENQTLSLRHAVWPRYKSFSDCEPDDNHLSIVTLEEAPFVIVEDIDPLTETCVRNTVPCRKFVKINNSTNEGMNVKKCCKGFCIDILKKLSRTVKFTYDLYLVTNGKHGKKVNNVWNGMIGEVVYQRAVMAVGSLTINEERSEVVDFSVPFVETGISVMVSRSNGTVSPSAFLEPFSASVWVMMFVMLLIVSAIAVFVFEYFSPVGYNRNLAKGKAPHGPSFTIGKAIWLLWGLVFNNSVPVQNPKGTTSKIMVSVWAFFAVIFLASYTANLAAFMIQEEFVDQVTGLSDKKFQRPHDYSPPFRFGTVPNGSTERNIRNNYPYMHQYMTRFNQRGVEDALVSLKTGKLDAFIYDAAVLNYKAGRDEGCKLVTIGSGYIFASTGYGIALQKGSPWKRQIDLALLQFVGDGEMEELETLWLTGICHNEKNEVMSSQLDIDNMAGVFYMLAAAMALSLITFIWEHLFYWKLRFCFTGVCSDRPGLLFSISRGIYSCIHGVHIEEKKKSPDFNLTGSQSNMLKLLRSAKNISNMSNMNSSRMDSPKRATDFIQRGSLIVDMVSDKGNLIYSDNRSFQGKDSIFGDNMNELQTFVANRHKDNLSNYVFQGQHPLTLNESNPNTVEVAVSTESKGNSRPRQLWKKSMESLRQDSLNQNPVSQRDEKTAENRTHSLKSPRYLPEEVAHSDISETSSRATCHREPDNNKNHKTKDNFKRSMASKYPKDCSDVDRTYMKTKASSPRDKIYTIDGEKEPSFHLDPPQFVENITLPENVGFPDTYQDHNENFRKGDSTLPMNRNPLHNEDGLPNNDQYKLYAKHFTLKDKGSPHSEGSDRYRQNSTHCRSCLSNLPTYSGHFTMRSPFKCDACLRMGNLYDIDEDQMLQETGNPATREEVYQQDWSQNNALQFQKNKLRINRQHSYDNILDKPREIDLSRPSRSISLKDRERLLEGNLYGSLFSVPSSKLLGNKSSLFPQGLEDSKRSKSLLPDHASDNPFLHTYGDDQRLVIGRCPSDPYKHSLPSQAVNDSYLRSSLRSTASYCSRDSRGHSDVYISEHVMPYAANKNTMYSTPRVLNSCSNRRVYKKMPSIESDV
T1 sequence (Q00960 27-1482, other chains not shown): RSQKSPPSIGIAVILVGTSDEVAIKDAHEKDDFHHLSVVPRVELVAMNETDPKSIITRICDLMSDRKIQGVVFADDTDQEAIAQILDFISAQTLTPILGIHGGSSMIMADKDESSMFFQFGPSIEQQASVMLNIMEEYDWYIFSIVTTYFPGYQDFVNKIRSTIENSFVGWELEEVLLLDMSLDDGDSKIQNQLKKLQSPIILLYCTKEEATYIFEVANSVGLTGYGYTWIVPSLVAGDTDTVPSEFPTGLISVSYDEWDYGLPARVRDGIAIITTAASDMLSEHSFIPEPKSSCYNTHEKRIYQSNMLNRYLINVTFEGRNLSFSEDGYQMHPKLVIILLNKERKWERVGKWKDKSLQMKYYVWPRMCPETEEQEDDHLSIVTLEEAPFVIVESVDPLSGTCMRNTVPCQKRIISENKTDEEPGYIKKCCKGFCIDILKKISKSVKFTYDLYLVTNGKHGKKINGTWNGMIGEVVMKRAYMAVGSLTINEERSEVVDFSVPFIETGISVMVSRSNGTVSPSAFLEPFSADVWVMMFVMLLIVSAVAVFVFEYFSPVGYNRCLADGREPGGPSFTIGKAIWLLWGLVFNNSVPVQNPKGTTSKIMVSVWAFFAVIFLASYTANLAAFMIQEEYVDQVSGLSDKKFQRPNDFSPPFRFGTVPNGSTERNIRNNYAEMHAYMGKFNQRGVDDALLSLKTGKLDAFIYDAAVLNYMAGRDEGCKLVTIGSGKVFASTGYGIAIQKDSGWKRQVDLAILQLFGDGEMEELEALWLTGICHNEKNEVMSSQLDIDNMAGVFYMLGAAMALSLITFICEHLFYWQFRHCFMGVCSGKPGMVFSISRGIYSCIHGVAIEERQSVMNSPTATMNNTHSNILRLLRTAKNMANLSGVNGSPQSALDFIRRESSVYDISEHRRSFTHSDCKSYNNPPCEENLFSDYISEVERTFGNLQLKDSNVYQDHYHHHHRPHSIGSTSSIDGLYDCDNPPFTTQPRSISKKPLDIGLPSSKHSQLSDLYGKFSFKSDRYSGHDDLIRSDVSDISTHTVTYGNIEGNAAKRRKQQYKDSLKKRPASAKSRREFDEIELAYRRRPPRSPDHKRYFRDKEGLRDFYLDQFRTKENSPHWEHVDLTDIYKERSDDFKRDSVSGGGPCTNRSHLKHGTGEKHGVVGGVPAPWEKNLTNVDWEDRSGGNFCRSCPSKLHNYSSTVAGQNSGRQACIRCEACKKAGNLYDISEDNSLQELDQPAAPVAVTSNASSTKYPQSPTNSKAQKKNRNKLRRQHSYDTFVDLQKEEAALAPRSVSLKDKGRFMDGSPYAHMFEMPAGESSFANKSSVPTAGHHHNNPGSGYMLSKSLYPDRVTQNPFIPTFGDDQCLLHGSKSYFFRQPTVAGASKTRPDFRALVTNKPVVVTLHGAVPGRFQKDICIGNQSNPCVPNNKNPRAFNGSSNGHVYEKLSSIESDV

TAT-EE3: membrane permeable disrupting peptide, sequence YGRKKRRQRRREEDTDSSEEMLALAEE (SEQ ID NO: 4)
NMDAR current amplitude: significantly smaller than that in cells treated with TAT-SC
